# Reference: publication PMC2588538, “Structure of Reovirus σ1 in Complex with Its Receptor Junctional Adhesion Molecule-A” (PLoS Pathogens, 2008)
# B1: σ1 of reovirus strain rsT3D-σ1T249I (parent), on purified virions [mammalian orthoreovirus, strain type 3 Dearing (T3D)] / GST-JAM-A ectodomain fusion protein [not stated] (parent complex)
# chain 1: MDPRLREEVVRLIIALTSDNGASLSKGLESRVSALEKTSQIHSDTILRITQGLDDANKRIIALEQSRDDLVASVSDAQLAISRLESSIGALQTVVNGLDSSVTQLGARVGQLETGLAELRVDHDNLVARVDTAERNIGSLTTELSTLTLRVTSIQADFESRISTLERTAVTSAGAPLSIRNNRMTMGLNDGLTLSGNNLAIRLPGNTGLNIQNGGLQFRFNTDQFQIVNNNLTLKTTVFDSINSRIGAIEQSYVASAVTPLRLNSSTKVLDMLIDSSTLEINSSGQLTVRSTSPNLRYPIADVSGGIGMSPNYRFRQSMWIGIVSYSGSGLNWRVQVNSDIFIVDDYIHICLPAFDGFSIADGGDLSLNFVTGLLPPLLTGDTEPAFHNDVVTYGAQTVAIGLSSGGAPQYMSKNLWVEQWQDGVLRLRVEGGGSITHSNSKWPAMTVSYPRSFT
# chain 2: SVTVHSSEPEVRIPENNPVKLSCAYSGFSSPRVEWKFDQGDTTRLVCYNNKITASYEDRVTFLPTGITFKSVTREDTGTYTCMVSEEGGNSYGEVKVKLIVLVPPSKPTVNIPSSATIGNRAVLTCSEQDGSPPSEYTWFKDGIVMPTNPKSTRAFSNSSYVLNPTTGELVFDPLSASDTGEYSCEARNGYGTPMTSNAVRMEAVERNVGV
# Variants of: B1
# Experiment: SPR; 8×1012 (orange) particles/ml virus; GST-JAM-A captured on biosensor surface; parent: 98; read off a plot
row,Variant,response [RU]
1,chain 1 N369A,~25
